According to the RNAGym collection of RNA variant scans (doi:10.1073/pnas.2313332121):

B1: TPR t1 (parent)
chain: GACCAAUCUGCCCUCAGAGCUCGAGAACAUCUUCGGAUGCAGAGGAGGCAGGCUUCGGUGGCGCGAUAGCGCCAACGUCCUCAACCUCCAAUGCAUCCCACCACAUGAUGAUGCCUGAAGAGCCUUGGUUUUUUG

Variants of: B1
Assay: polymerase ribozyme fitness, log enrichment relative to wild type (log ratio); higher = more active; in vitro selection for triplet polymerase activity
Summary of the method: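 The heterodimeric triplet polymerase ribozyme's subunits were each mutagenized into PCR-built libraries and transcribed. Every library was selected once, in triplicate, by annealing with a biotinylated primer, the partner subunit and triplets, incubating frozen at −7 °C, gel-excising extended constructs, capturing on streptavidin beads and running RT-PCR. Input and output libraries were Illumina-sequenced, with genotypes kept only at ≥10 input reads and ≥1 read per output. Fitness, from inverse-variance-weighted replicate averages, is the base-2 logarithm of genotype enrichment over wild-type enrichment.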

Point of comparison: A16C C56G A121C, “polymerase ribozyme fitness (log ratio)” value -1.27. Against it:
- C15U G60A G128A — lower, -2.6
- C15U G110A — lower, -2.25
- C15U C62G C82A — lower, -2.4
- C15U U78G C114U — lower, -4.55
- A16C G61C G69U U81A G120C — lower, -3.32
- C15U C34A C123U — lower, -3.01
- C15A G25C C34G C64U G113A — lower, -7.48
- C15A G69U C101A C123U G127A — lower, -4.17
- C15U G117U G120A — lower, -1.56
- C15U A50U C73U A118U G127A — lower, -5.35
- A16C C70U — lower, -3.17
- A16C C22U — lower, -5.8
- C15U C124A — higher, 0.552
- C15U U21A A100C U109C G117U U130A — lower, -6.66
- C15G G25U C34G G60C U109G — lower, -6.48
- C15U U21C C49G C62A G117A — the same, -1.27
- A16C A83C U106C C115U U125C — lower, -2.38
- C15U A43C C76U — lower, -3.95
- C15A G122A — lower, -1.85
- C15A G36U G42A C49G G60U — lower, -6.51
- C15U A37C C53A — lower, -1.72
- C15G G117A — lower, -1.61
- C15A G48C G52C — lower, -4.44
- C15U G19U C124G — lower, -2.54
- C15U C72A C85G C102A — lower, -3.1
- C15U U78C C79G C124G U131A — higher, 0.897
- A16C C53A C56A G60A — lower, -4.12
- C15U C22U C72U G120C — lower, -3.96
- C15U U96A — lower, -1.57
- C15U A41U A90C C115G — lower, -4.18
- A16C U109A U116G — lower, -6.51
- C15U A37G C70U A100U A121C C123U — within 0.2 log units, -1.4
- C15G A43U A84U — lower, -5.64
- C15U A90U — lower, -2.96
- C15G A43U — lower, -3.43
- C15G C40U G61A C89U A91C C123G — higher, -0.621
- C15U A41C G45A G71C U112A G117A G127C — lower, -4.04
- C15G U32C C49U U87G — lower, -3.89
- C15G C20A G69U U81A C124A — within 0.2 log units, -1.08
- C15A G113A — lower, -3.63
- A16C C49A — lower, -3.04
- C15U G36A G69U C72U — lower, -1.55
- C15G G19A C73U U112A G122U — lower, -3.84
- C15U A84U U87A A105G G113U — lower, -5.89
- C15U A18U C49G C72A U92C — lower, -5.58
- C15A G57U A91G C123A — lower, -3.21
- C15U G128C — lower, -3.18
- C15G G71U — lower, -1.94
- C15A U55G G71A C88A — lower, -2.35
- C15U G60A U81G C82G A119G G120U C123A — lower, -1.78
- C15A U126A — lower, -4.9
- C15U A18U G44U G69U — lower, -5.2
- C15A G69U C88U U125C — lower, -3.27
- C15A G48U A50G C115U — lower, -4.63
- C15G C49U U106A — lower, -3.74
- C15G A74U G117U — higher, -0.0169
- C15U C56A C62A G110C — lower, -6.04
- C15U A26U — lower, -5.06
- C15G U59A G63C — lower, -2.33
- C15G G57A U132C — lower, -3.99
- C15U A37G C53G U129C — lower, -2.67
- C15A G42A C53A C101U — lower, -4.53
- C15G U38C C124G — higher, 0.313
- C15U C72A G110U — lower, -2.17
- C15U U59G U96C C102A G120C U133A — lower, -2.28
- C15A U92G — lower, -4.55
- C15U G45A C56A G77C C88G G117C C123U — lower, -4.21
- C15G C40A C76G G77C G117C — higher, -0.354
- C15A G39A U87G U112G — lower, -2.16
- C15A U92C G110C C115U G127U — lower, -6
- C15G C56U — lower, -2.17
- A16C C101U — lower, -2.45
- C15A C98U — lower, -3.62
- C15U A46G A84U U112A G113U G120U — lower, -4.78
- C15G C85G U96A C114A G117C — lower, -3.58
- C15A C124G — higher, 0.792
- C15U G36C A50C C72U C124G — higher, -0.154
- A16C U55G C123G — higher, -0.307
- A16C U87C — lower, -2.31
- C15U G48U A103C C123G — lower, -6.34
- A16C G45U — lower, -4.66
- C15U C49A C62U U116A A121C U131G — lower, -3.93
- C15U C76G — within 0.2 log units, -1.31
- A16C G52A G60A — lower, -2.03
- C15A U78C C88A C102A — lower, -5.8
- C15U A43G G57U C85A G93U G120C — lower, -4.37
- C15A G39A G61A C123U — higher, -0.349
- C15U C72A — higher, -1.07
- C15U C73U C85G — lower, -1.89
- C15U A43C G69A — lower, -4.44
- C15U C56A C72A C79G — lower, -2.96
- C15U C62A — lower, -2.1
- C15U C62U — lower, -1.95
- A16C G69U — lower, -1.81
- A16C G44C C73A C86U G120U — lower, -2.98
- C15U U106A — lower, -1.69
- C15U C115A — lower, -1.57
- C15U G23C A27U G45C G113C — lower, -6.21
- C15U G61C C104A C124U — lower, -3.58
- C15G G45C C53U A91U — lower, -5.56
- C15U G25U A26U G51A C99U U112G C114G G135A — lower, -6.73
- C15U C20U G42A A43C G113A — lower, -1.99
- C15A G42A C56A G69U A100C U132A — lower, -4.53
- C15A G61A C85U C98G A105G U109A C124U — lower, -6.62
- C15A G47U C123U — lower, -2.56
- C15G G44U — lower, -3.71
- C15U G35A A66U U109A U116A — lower, -5.44
- A16C C64U U78C U87A G113U U116A — lower, -7.76
- C15A G63U A68G A111G — lower, -7.51
- C15U C73U G77A C98A — lower, -8.01
- C15A G17A C73G U112A — lower, -4.93
- C15U A43C — lower, -2.99
- C15U G52A — lower, -1.6
- C15U A18U C31A G39U U54A C70U C114U C115G — lower, -5.12
- C15A G135U — lower, -2.9
- C15A C94U G120C — higher, -0.704
- C15A G71A — lower, -2.63
- C15U C53U G61U C97U — lower, -2.21
- A16C G44U G69U U125G — lower, -2.18
- C15U G120C — higher, -0.175
- C15G A27G A95G G110U — lower, -5.6
- C15G G39U C73G U112A G122U — lower, -2.91
- C15U C28U C89A C123A — lower, -5.8
- C15A G69U — within 0.2 log units, -1.16
- C15A G71C C97G G117U — lower, -5.07
- A16C C70U C85G — lower, -3.97
- C15U G52A C62U A74U A83U U132A — lower, -3.97
- C15G G69U C94A U109A C124A — lower, -4.14
- C15U A46U U54G C123A — lower, -1.74
- C15U C72U G110C — lower, -5.35
- C15A U132A — lower, -2.04
- C15A U132C — within 0.2 log units, -1.46
- C15U C70G C97U — lower, -3.09
- C15G A18U G63C A91C — lower, -4.66
- C15U G23U G47A C49U C62U G65A A111C — lower, -6.66
- C15G G93C — lower, -4.1
- C15G G93A — lower, -3.21
- A16C C73U C115G — lower, -3.06
- C15A G69A C104U — lower, -4.06
- C15A G45A C97U A121G U130G — higher, -0.808
- C15U A37U U55G C56U — lower, -3.11
- C15U A18U C31A G39U U54A C72U C114U C115G — lower, -6.25
- C15U G71A — lower, -2.11
- C15U G71C — higher, -1.05
- C15G A66U — lower, -4.55
- C15U A74G A105G — lower, -4.44
- C15U G135U — lower, -2.12
- C15G C73G C88U U116G — lower, -3.52
- C15U G39A G60A G117C G120A — lower, -4.8
- A16C G47U — lower, -3.93
- C15U G36U C64A A121G — lower, -5.18
- C15G C40A A121G U129C — lower, -3.1
- C15G A95U U116G — lower, -2.63
- C15U U33G C88G C115G — lower, -6.42
- C15G C20U — lower, -2.98
- C15A U54A C56A — lower, -2.64
- C15A G77U G122A C123A — lower, -2.19
- C15U C34U — lower, -4.93
- C15G G52U C76U U96C C99U A111G — lower, -7.38
- C15G G42A G69U C88G — lower, -2.25
- A16C A18C C40U G71U C79U — lower, -5.22
- C15U C70U — lower, -1.7
- C15A G36U G61A — lower, -3.38
- C15G A41U C56U U96C C124G — lower, -2.08
- C15A U59A U126A — lower, -4.53
- C15U G47A G69C C85A A119U C124U — lower, -3.68
